According to US20180334499A1 (Pieris, published 2018):

T1: recombinant human Ang-2 (human, UniProt O15123 19-496, limits assumed)
T1 construct: also called hAng-2; human angiopoietin-2
T1 sequence (looked up): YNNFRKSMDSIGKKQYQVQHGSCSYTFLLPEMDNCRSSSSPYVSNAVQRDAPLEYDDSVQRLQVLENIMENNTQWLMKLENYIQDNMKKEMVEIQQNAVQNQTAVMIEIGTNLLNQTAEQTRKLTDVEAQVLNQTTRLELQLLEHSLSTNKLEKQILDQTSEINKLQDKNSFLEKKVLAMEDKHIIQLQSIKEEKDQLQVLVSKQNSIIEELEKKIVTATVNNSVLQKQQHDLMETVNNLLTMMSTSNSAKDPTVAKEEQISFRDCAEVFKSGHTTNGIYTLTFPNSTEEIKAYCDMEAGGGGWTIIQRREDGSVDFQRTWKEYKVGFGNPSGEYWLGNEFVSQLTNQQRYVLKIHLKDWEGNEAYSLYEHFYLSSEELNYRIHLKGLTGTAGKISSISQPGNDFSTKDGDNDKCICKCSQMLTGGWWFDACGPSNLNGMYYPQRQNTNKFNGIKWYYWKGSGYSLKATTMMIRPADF


Biological target: T1, recombinant human Ang-2
Assay: ELISA, recombinant human Ang-2 coated, detection with anti-human IgG Fc-HRP or anti-lipocalin-HRP, signal normalised (RU %)
Description: Bound agents under study were detected via an anti-human-IgG-Fc antibody or anti-lipocalin antibody as described in Example 3. The data was fit with a 1:1 binding model with EC50 value and the maximum signal as free parameters, and a slope that was fixed to unity.
The target was dissolved in PBS (5 μg/mL) and coated overnight on microtiter plates at 4° C. The plate was washed after each incubation step with 80 μL PBS-T five times. The plates were blocked with 2% BSA (w/v) in PBS for 1 h at room temperature and subsequently washed. […] Bound agents under study were detected after incubation for 1 h at room temperature with 1:1000 diluted anti-lipocalin antibody conjugated to HRP in PBS-T or 1:5000 diluted anti-human IgG Fc-HRP (#109-035-098, Jackson […]) in PBS-T. After an additional wash step, fluorogenic HRP substrate (QuantaBlu, Thermo) was added to each well and the fluorescence intensity was detected using a fluorescence microplate reader.

EC50 (read off the curve) [nM] | binding result | Binder
~0.4 | – | lipocalin mutein of SEQ ID NO: 2 (designed binder, hNGAL mutein specific for Ang-2, tested in monomeric form; also called positive control lipocalin mutein; Ang-2-specific lipocalin mutein in monomeric form) QDSTSDLIPAPPLSKVPLQQNFQDNQFHGKWYVVGQAGNYILREDKDPGKMWATIYELKEDKSYDVTEVSFGAKKCNYRIWTFVPGSQPGEFTLGGIKSDPGGTSTLVRVVSTNYNQHAMVFFKHVLQNREFFEITLYGRTKELTSELKENFIRFSKSLGLPENHIVFPVPIDQCIDG
~0.6 | – | lipocalin mutein of SEQ ID NO: 3 (designed binder, hNGAL mutein specific for Ang-2, tested in monomeric form; also called positive control lipocalin mutein; Ang-2-specific lipocalin mutein in monomeric form) QDSTSDLIPAPPLSKVPLQQNFQDNQFHGKWYVVGHAGNYILREDKDPGKMWATIYELKEDKSYDVTEVSFGPKKCNYRIWTFVPGSQPGEFTLGGIKSPPGGTSTLVRVVSTNYNQHAMVFFKHVLQNREFFEITLYGRTKELTSELKENFIRFSKSLGLPENHIVFPVPIDQCIDG
– | no binding (tested: 100 nM) | SEQ ID NO: 1 negative control (other, Lipocalin negative control; also called mature hNGAL) QDSTSDLIPAPPLSKVPLQQNFQDNQFQGKWYVVGLAGNAILREDKDPQKMYATIYELKEDKSYNVTSVLFRKKKCDYWIRTFVPGCQPGEFTLGNIKSYPGLTSYLVRVVSTNYNQHAMVFFKKVSQNREYFKITLYGRTKELTSELKENFIRFSKSLGLPENHIVFPVPIDQCIDG
